This passage reports apparent homoFRET efficiency (E Homo) and steady-state fluorescence anisotropy in droplets (loss by homoFRET) results from paper PMC11511825.

In the assay the target is FUS-eGFP (C-terminally eGFP-tagged Fused in Sarcoma) (UniProt P35637). In words: FRET or BRET.

For the substance “FUS-eGFP (C-terminally eGFP-tagged Fused in Sarcoma) (from UniProt P35637 1-526) (natural protein)”, the apparent homoFRET efficiency (E Homo) stood at 0.7 and the steady-state fluorescence anisotropy in droplets (loss by homoFRET) amounted to 0.08.
